# Reference: patent US6881834
# Tests used:
# Sp1 = Sp1 (UniProt P08047); experiment: cell_activity; conditions: luciferase induction in Drosophila cells
# Sp3 = Sp3 (UniProt Q02447); experiment: cell_activity; conditions: luciferase induction in Drosophila cells
# Chain of Sp3 (Q02447 whole entry): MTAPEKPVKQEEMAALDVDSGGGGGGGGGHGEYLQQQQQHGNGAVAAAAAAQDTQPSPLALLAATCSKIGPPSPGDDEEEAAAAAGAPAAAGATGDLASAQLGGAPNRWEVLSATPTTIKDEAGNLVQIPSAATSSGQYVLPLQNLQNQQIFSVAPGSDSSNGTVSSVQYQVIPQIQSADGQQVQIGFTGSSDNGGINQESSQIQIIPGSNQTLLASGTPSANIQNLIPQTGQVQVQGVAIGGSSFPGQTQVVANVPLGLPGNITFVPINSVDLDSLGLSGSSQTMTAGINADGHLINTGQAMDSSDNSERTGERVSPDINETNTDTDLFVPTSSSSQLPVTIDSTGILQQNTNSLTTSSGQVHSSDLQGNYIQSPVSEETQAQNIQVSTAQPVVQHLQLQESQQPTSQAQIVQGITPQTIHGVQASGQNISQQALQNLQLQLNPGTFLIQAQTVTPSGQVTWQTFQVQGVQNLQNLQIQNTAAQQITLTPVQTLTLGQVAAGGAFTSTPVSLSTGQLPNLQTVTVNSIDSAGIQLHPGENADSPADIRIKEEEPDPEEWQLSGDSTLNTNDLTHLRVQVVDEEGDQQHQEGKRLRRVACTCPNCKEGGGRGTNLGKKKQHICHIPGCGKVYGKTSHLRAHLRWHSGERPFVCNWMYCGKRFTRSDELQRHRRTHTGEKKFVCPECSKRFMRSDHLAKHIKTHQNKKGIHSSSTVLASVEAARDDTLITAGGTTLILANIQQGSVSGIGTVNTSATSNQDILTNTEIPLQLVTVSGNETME
# Chain of Sp1 (P08047 2-785): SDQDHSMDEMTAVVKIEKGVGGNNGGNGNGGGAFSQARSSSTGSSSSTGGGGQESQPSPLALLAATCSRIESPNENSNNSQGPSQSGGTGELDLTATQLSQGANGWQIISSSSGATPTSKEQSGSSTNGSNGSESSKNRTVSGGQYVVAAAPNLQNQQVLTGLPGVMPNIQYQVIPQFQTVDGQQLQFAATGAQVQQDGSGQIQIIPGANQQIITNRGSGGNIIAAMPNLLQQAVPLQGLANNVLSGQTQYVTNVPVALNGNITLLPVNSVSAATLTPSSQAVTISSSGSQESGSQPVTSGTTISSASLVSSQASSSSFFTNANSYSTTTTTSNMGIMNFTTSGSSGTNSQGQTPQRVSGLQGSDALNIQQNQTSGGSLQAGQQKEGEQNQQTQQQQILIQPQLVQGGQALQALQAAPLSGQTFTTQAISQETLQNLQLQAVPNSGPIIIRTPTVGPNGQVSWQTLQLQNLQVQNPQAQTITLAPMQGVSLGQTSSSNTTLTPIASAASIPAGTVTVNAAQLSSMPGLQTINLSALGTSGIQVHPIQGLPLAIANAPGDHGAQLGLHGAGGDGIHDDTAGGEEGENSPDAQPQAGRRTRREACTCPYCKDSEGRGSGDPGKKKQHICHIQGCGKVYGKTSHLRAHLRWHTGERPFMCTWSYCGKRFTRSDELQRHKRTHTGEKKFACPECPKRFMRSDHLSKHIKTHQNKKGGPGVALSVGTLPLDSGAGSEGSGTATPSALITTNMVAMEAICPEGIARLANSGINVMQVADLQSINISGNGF
substance,measurement,setting,value
CD11c promoter -196/+30 (CD11c-luc),activity,Sp1,19.5 fold
same,activity,Sp3,18.9 fold
